Experimental data as given in the supplement of paper PMC10567573.

B1: KCNA4 (parent)
chain: YQLGEEALLKFREDEGFVREEEDR
B2: SLC35F2 (parent)
chain: FVAFALCMFCLYSFMPLVIKVTSA

Variants of: B1
Assay: protein stability index of a GFP-peptide fusion (GPS, HEK-293T) (PSI 1-6); higher = more stable
Details: c terminus: a fixed tail appended
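Further: lentivirally expressed fusions sorted by FACS into six bins by GFP to DsRed ratio, PSI derived from sequencing read proportions per bin multiplied by bin number.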

Variant | protein stability index
YQLGFEALLKFREDEGFVREEEDR | 2.93
YQLGGEALLKFREDEGFVREEEDR | 3.87
YQLGREALLKFREDEGFVREEEDR | 3.48
YQLGHEALLKFREDEGFVREEEDR | 3.76
YQLGVEALLKFREDEGFVREEEDR | 3.86
YQLGIEALLKFREDEGFVREEEDR | 3.55
YQLGMEALLKFREDEGFVREEEDR | 3.37
YQLGPEALLKFREDEGFVREEEDR | 4.11
YQLGSEALLKFREDEGFVREEEDR | 4.38
YQLGTEALLKFREDEGFVREEEDR | 4.2
YQLGCEALLKFREDEGFVREEEDR | 4.32
YQLGWEALLKFREDEGFVREEEDR | 1.63
YQLGDEALLKFREDEGFVREEEDR | 4.97
YQLGLEALLKFREDEGFVREEEDR | 3.83
YQLGNEALLKFREDEGFVREEEDR | 4.22
YQLGYEALLKFREDEGFVREEEDR | 3.21
YQLGAEALLKFREDEGFVREEEDR | 3.65
YQLGQEALLKFREDEGFVREEEDR | 3.92
YQLGKEALLKFREDEGFVREEEDR | 3.3
YQLHEEALLKFREDEGFVREEEDR | 4.8
YQLAEEALLKFREDEGFVREEEDR | 5.24
YQLTEEALLKFREDEGFVREEEDR | 4.12
YQLMEEALLKFREDEGFVREEEDR | 5.27

Variant | protein stability index
YQLREEALLKFREDEGFVREEEDR | 4.56
YQLPEEALLKFREDEGFVREEEDR | 5.03
YQLFEEALLKFREDEGFVREEEDR | 4.28
YQLNEEALLKFREDEGFVREEEDR | 4.28
YQLWEEALLKFREDEGFVREEEDR | 4.4
YQLVEEALLKFREDEGFVREEEDR | 5.11
YQLIEEALLKFREDEGFVREEEDR | 4.83
YQLYEEALLKFREDEGFVREEEDR | 4.57
YQLEEEALLKFREDEGFVREEEDR | 5.77
YQLQEEALLKFREDEGFVREEEDR | 5.08
YQLLEEALLKFREDEGFVREEEDR | 4.41
YQLSEEALLKFREDEGFVREEEDR | 3.81
YQLDEEALLKFREDEGFVREEEDR | 4.43
YQLCEEALLKFREDEGFVREEEDR | 4.51
YQLKEEALLKFREDEGFVREEEDR | 5.34
YQLGEEAILKFREDEGFVREEEDR | 5.21
YQLGEEARLKFREDEGFVREEEDR | 5.13
YQLGEEAHLKFREDEGFVREEEDR | 5.62
YQLGEEASLKFREDEGFVREEEDR | 5.47
YQLGEEAELKFREDEGFVREEEDR | 5.5
YQLGEEAMLKFREDEGFVREEEDR | 4.56
YQLGEEADLKFREDEGFVREEEDR | 5.6
YQLGEEAVLKFREDEGFVREEEDR | 5.58

Variant | protein stability index
YQLGEEAWLKFREDEGFVREEEDR | 3.55
YQLGEEAQLKFREDEGFVREEEDR | 5.65
YQLGEEAFLKFREDEGFVREEEDR | 4.43
YQLGEEAGLKFREDEGFVREEEDR | 5.48
YQLGEEAALKFREDEGFVREEEDR | 4.93
YQLGEEAKLKFREDEGFVREEEDR | 5.04
YQLGEEANLKFREDEGFVREEEDR | 5.5
YQLGEEAYLKFREDEGFVREEEDR | 5.21
YQLGEEACLKFREDEGFVREEEDR | 4.98
YQLGEEATLKFREDEGFVREEEDR | 4.88
YQLGEEAPLKFREDEGFVREEEDR | 5.13
YHLGEEALLKFREDEGFVREEEDR | 2.94
YMLGEEALLKFREDEGFVREEEDR | 4.79
YNLGEEALLKFREDEGFVREEEDR | 5.23
YRLGEEALLKFREDEGFVREEEDR | 5.09
YTLGEEALLKFREDEGFVREEEDR | 5.31
YVLGEEALLKFREDEGFVREEEDR | 4.21
YGLGEEALLKFREDEGFVREEEDR | 5.23
YCLGEEALLKFREDEGFVREEEDR | 4.91
YWLGEEALLKFREDEGFVREEEDR | 4.19
YLLGEEALLKFREDEGFVREEEDR | 4.24
YDLGEEALLKFREDEGFVREEEDR | 5.62
YPLGEEALLKFREDEGFVREEEDR | 5.15

Variant | protein stability index
YKLGEEALLKFREDEGFVREEEDR | 5.7
YILGEEALLKFREDEGFVREEEDR | 4.43
YYLGEEALLKFREDEGFVREEEDR | 4.31
YALGEEALLKFREDEGFVREEEDR | 5.36
YELGEEALLKFREDEGFVREEEDR | 5.37
YFLGEEALLKFREDEGFVREEEDR | 4.15
YSLGEEALLKFREDEGFVREEEDR | 5.61
MQLGEEALLKFREDEGFVREEEDR | 5.47
DQLGEEALLKFREDEGFVREEEDR | 5.79
IQLGEEALLKFREDEGFVREEEDR | 5.3
KQLGEEALLKFREDEGFVREEEDR | 5.6
EQLGEEALLKFREDEGFVREEEDR | 5.74
QQLGEEALLKFREDEGFVREEEDR | 5.41
FQLGEEALLKFREDEGFVREEEDR | 4.45
PQLGEEALLKFREDEGFVREEEDR | 5.63
VQLGEEALLKFREDEGFVREEEDR | 5.58
GQLGEEALLKFREDEGFVREEEDR | 5.95
WQLGEEALLKFREDEGFVREEEDR | 5.25
SQLGEEALLKFREDEGFVREEEDR | 5.53
RQLGEEALLKFREDEGFVREEEDR | 5.81
HQLGEEALLKFREDEGFVREEEDR | 5.47
AQLGEEALLKFREDEGFVREEEDR | 5.7
LQLGEEALLKFREDEGFVREEEDR | 4.96

Variant | protein stability index
CQLGEEALLKFREDEGFVREEEDR | 5.21
TQLGEEALLKFREDEGFVREEEDR | 5.57
NQLGEEALLKFREDEGFVREEEDR | 5.67
YQLGEEALFKFREDEGFVREEEDR | 4.36
YQLGEEALKKFREDEGFVREEEDR | 4.57
YQLGEEALTKFREDEGFVREEEDR | 5.15
YQLGEEALQKFREDEGFVREEEDR | 4.9
YQLGEEALWKFREDEGFVREEEDR | 4.01
YQLGEEALRKFREDEGFVREEEDR | 4.41
YQLGEEALAKFREDEGFVREEEDR | 4.88
YQLGEEALIKFREDEGFVREEEDR | 5
YQLGEEALSKFREDEGFVREEEDR | 5.05
YQLGEEALEKFREDEGFVREEEDR | 5.37
YQLGEEALCKFREDEGFVREEEDR | 4.92
YQLGEEALNKFREDEGFVREEEDR | 4.17
YQLGEEALPKFREDEGFVREEEDR | 5.09
YQLGEEALHKFREDEGFVREEEDR | 4.96
YQLGEEALMKFREDEGFVREEEDR | 4.84
YQLGEEALVKFREDEGFVREEEDR | 5.15
YQLGEEALDKFREDEGFVREEEDR | 5.87
YQLGEEALGKFREDEGFVREEEDR | 5.03
YQLGEEALYKFREDEGFVREEEDR | 5.09
YQLGEVALLKFREDEGFVREEEDR | 2.93

Variant | protein stability index
YQLGEYALLKFREDEGFVREEEDR | 3.04
YQLGEIALLKFREDEGFVREEEDR | 2.93
YQLGEQALLKFREDEGFVREEEDR | 4.23
YQLGENALLKFREDEGFVREEEDR | 4.43
YQLGEGALLKFREDEGFVREEEDR | 4.32
YQLGELALLKFREDEGFVREEEDR | 3.32
YQLGEHALLKFREDEGFVREEEDR | 4.33
YQLGECALLKFREDEGFVREEEDR | 3.51
YQLGETALLKFREDEGFVREEEDR | 4.32
YQLGESALLKFREDEGFVREEEDR | 4.67
YQLGEFALLKFREDEGFVREEEDR | 2.4
YQLGEPALLKFREDEGFVREEEDR | 4.92
YQLGERALLKFREDEGFVREEEDR | 3.46
YQLGEDALLKFREDEGFVREEEDR | 4.67
YQLGEMALLKFREDEGFVREEEDR | 3.99
YQLGEWALLKFREDEGFVREEEDR | 1.97
YQLGEAALLKFREDEGFVREEEDR | 4.31
YQLGEKALLKFREDEGFVREEEDR | 4
YQPGEEALLKFREDEGFVREEEDR | 5.28
YQWGEEALLKFREDEGFVREEEDR | 3.89
YQHGEEALLKFREDEGFVREEEDR | 5.22
YQAGEEALLKFREDEGFVREEEDR | 5.22
YQCGEEALLKFREDEGFVREEEDR | 4.38

Variant | protein stability index
YQRGEEALLKFREDEGFVREEEDR | 4.75
YQDGEEALLKFREDEGFVREEEDR | 5.85
YQGGEEALLKFREDEGFVREEEDR | 4.53
YQTGEEALLKFREDEGFVREEEDR | 5.31
YQNGEEALLKFREDEGFVREEEDR | 5.68
YQYGEEALLKFREDEGFVREEEDR | 5.23
YQFGEEALLKFREDEGFVREEEDR | 4.7
YQIGEEALLKFREDEGFVREEEDR | 5.12
YQQGEEALLKFREDEGFVREEEDR | 5.62
YQMGEEALLKFREDEGFVREEEDR | 3.76
YQVGEEALLKFREDEGFVREEEDR | 5.28
YQEGEEALLKFREDEGFVREEEDR | 5.67
YQSGEEALLKFREDEGFVREEEDR | 4.86
YQKGEEALLKFREDEGFVREEEDR | 5.02
YQLGEEMLLKFREDEGFVREEEDR | 4.14
YQLGEERLLKFREDEGFVREEEDR | 4.62
YQLGEEILLKFREDEGFVREEEDR | 3.99
YQLGEELLLKFREDEGFVREEEDR | 4.8
YQLGEEFLLKFREDEGFVREEEDR | 4.43
YQLGEEGLLKFREDEGFVREEEDR | 4.64
YQLGEEVLLKFREDEGFVREEEDR | 4.33
YQLGEEQLLKFREDEGFVREEEDR | 4.1
YQLGEESLLKFREDEGFVREEEDR | 4.52

Variant | protein stability index
YQLGEENLLKFREDEGFVREEEDR | 4.82
YQLGEEKLLKFREDEGFVREEEDR | 5.36
YQLGEEHLLKFREDEGFVREEEDR | 4.56
YQLGEEYLLKFREDEGFVREEEDR | 4.27
YQLGEETLLKFREDEGFVREEEDR | 4.95
YQLGEEDLLKFREDEGFVREEEDR | 4.23
YQLGEECLLKFREDEGFVREEEDR | 4.89
YQLGEEWLLKFREDEGFVREEEDR | 1.48
YQLGEEELLKFREDEGFVREEEDR | 4.38
YQLGEEPLLKFREDEGFVREEEDR | 4.59
YQLGEEALLEFREDEGFVREEEDR | 5.37
YQLGEEALLLFREDEGFVREEEDR | 3.1
YQLGEEALLCFREDEGFVREEEDR | 3.37
YQLGEEALLDFREDEGFVREEEDR | 5.55
YQLGEEALLFFREDEGFVREEEDR | 1.64
YQLGEEALLAFREDEGFVREEEDR | 4.01
YQLGEEALLGFREDEGFVREEEDR | 5.52
YQLGEEALLHFREDEGFVREEEDR | 4.74
YQLGEEALLIFREDEGFVREEEDR | 3.35
YQLGEEALLMFREDEGFVREEEDR | 3.59

Variants of: B2
Assay: as above
Details: c terminus: a fixed tail appended

Variant | protein stability index
FVAFALCMFCLYSFMPLVIKVTST | 3.11
FVAFALCMFCLYSFMPLVIKVTSR | 1.84
FVAFALCMFCLYSFMPLVIKVTSS | 2.61
FVAFALCMFCLYSFMPLVIKVTSV | 3.15
FVAFALCMFCLYSFMPLVIKVTSN | 2.63
FVAFALCMFCLYSFMPLVIKVTSW | 3.16
FVAFALCMFCLYSFMPLVIKVTSP | 3.3
